Article PMC8177707
Read-outs that look alike come from different tables or passages of the source.

Key:
Test in all cases: cryo-EM structure
[1] = molecular target: full-length wild-type calcium-sensing receptor from Gallus gallus (ggCaSR) (Gallus gallus)
[2] = molecular target: full-length wild-type calcium-sensing receptor from Gallus gallus (ggCaSR) (Gallus gallus); remark: listed apart in the source
[3] = molecular target: full-length wild-type calcium-sensing receptor from Gallus gallus (ggCaSR) (Gallus gallus); remark: listed apart in the source
[4] = molecular target: full-length wild-type calcium-sensing receptor from Gallus gallus (ggCaSR) (Gallus gallus); remark: listed apart in the source

stoichiometry N [1]: 2 | stoichiometry N [2]: 2 | stoichiometry N [3]: 2 | stoichiometry N [4]: 2
Substance: full-length wild-type calcium-sensing receptor from Gallus gallus (ggCaSR)
